B1: Fc domain without a β-amyloid fragment: control protein: mouse IgG1 Fc region with no amyloid binding sequence (protein)
chain: VPRDCGCKPCICTVPEVSSVFIFPPKPKDVLTITLTPKVTCVVVDISKDDPEVQFSWFVDDVEVHTAQTQPREEQFNSTFRSVSELPIMHQDWLNGKEFKCRVNSAAFPAPIEKTISKTKGRPKAPQVYTIPPPKEQMAKDKVSLTCMITDFFPEDITVEWQWNGQPAENYKNTQPIMNTNGSYFVYSKLNVQKSNWEAGNTFTCSVLHEGLHNHHTEKSLSHSPGK

Legend:
[1] = molecular target: T1, Aβ fibrils (aged Aβ 1-40) (Homo sapiens, UniProt P05067); assay: Fibril binding assay; settings: compound at 2 μM-200 fM dilutions; FIG. 9
T1 construct: 200 μM Aβ 1-40 peptide solution; purchased Bachem (Torrance, Calif.)
T1 sequence (P05067 672-711): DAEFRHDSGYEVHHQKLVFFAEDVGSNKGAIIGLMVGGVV
Protocol: The ability of a compound of the invention to modulate (e.g., inhibit or promote) the aggregation of natural β-AP when combined with the natural β-AP was examined using the Fibril binding assay. Natural β-AP (β-AP1-40) for use in the aggregation assays is commercially available from Bachem (Torrance, Calif.).
The following materials are needed for the Fibril binding assay: Millipore multifilter apparatus; 12×75 glass tubes; GF/F 25 mm glass filters; PBS/0.1% tween 20 at 4° C. (PBST); Aβ fibrils; radioactive compound; nonradioactive compound; Eppendorf repeat pipettor with tips; labels; forceps; and vacuum.
In this assay, each sample was run in triplicate. […]
The radioactively labeled compound was prepared using standard radioactive safety protocols by making a dilution into a PBS/0.1% tween-20 solution such that there was a final concentration of 20,000 dpm per 100 μL. […] The samples were covered with parafilm and incubated at 37° C. inside plastic radioactivity bags overnight.
To filter the samples, the filters were pre-wetted in a small volume of PBST. […] One minute counts were recorded, the data was plotted, and the Prism program (GraphPAD) was used to analyze the graph, according to the manufacturer's instructions.

[2] = system: amyloid plaques; assay: In vivo clearing of amyloid plaques in a mouse model of Alzheimer's disease; settings: direct infusion into the cerebral cortex in one hemisphere; APP Swedish/presenilin M146L transgenic mouse
Sequence of amyloid plaques (P05067 672-711 limits assumed): as the sequence (P05067 672-711) above
Protocol: The ability of Aβ(16-30)-Fc to clear amyloid plaques in a mouse model of Alzheimer's disease was assessed. The fusion protein was administered to a mouse transgenic for both the Swedish mutation of amyloid precursor protein and presenilin M146L by direct infusion into the cerebral cortex in one hemisphere. The mouse was sacrificed and the amount of amyloid in brain sections was determined by Thioflavin S staining.

[3] = system: amyloid plaques; assay: Immunohistochemistry: staining of amyloid plaques in brain sections with conditioned medium containing fusion proteins; type: binding; settings: 20-22 week mice transgenic for Swedish mutation APP and presenilin M146L; COS conditioned medium; developed with anti-mouse antibody
Protocol: Twenty micron serial coronal brain sections were prepared from 20-22 week mice transgenic for both the Swedish mutation of amyloid precursor protein and presenilin M146L (Ref.). All incubations were performed at room temperature. Sections were washed once in 100 mM Tris, pH 7.4 (Tris buffer), incubated in 70% formic acid for 3 minutes, then washed three times in Tris buffer. Endogenous peroxidase activity was blocked by incubating for 20 minutes in 10% methanol, 3% hydrogen peroxide in 40 mM Tris, pH 7.4. Sections were washed three times in Tris buffer then incubated in 0.85% NaCl, 0.1% Triton X-100, 100 mM Tris pH 7.4 (Tris buffer A) for 5 minutes followed by […]) for 15 minutes. Sections were incubated overnight in conditioned medium from cells expressing secreted fusion proteins or anti-β-amyloid polyclonal antibody diluted 1/1000 in Tris buffer B. Sections were washed twice in Tris buffer A and once in Tris buffer B then incubated with biotin-conjugated anti-mouse antibody raised in donkey from Jackson Laboratories diluted 1/500 in Tris buffer A for 1 hour. Sections were washed twice in Tris buffer A and once in Tris buffer B then incubated with avidin-conjugated horse radish peroxidase using the ABC Immunohistochemistry kit from Vector Laboratories. […]

Molecule	inhibition of Aβ aggregation (Fibril binding assay) [1]	plaque burden at the site of infusion compared to the control hemisphere (Thioflavin S staining) [2]	staining of amyloid plaques in coronal brain sections [3]
PPI-1019: compound tested in the Fibril binding assay; structure not given	effective inhibitors of Aβ aggregation		
B1		no difference	No amyloid plaques were detected

Reference: patent US20020133001A1, “Therapeutic agents and methods of use thereof for treating an amyloidogenic disease” (Praecis Pharmaceuticals Inc., priority 2000, published 2002)
